The source of these data is the supplement of paper PMC9112550, “Optimization of the antimicrobial peptide Bac7 by deep mutational scanning” (BMC Biology, 2022).
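Further: peptides expressed intracellularly from a pBAD plasmid library in pooled LB shake-flask culture, induced with 0.3% L-arabinose, DNA abundance read by NGS, three biological replicates, DESeq2 with apeglm shrinkage.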

The subject of the data set is Escherichia coli TOP10. The data set can be described thus: shrunken log2 fold change of peptide-encoding DNA abundance (4.5 h post-induction vs induction); higher = less antimicrobial activity (less host growth inhibition). Conditions: time post-induction: 4.5 h; library: site-saturation at positions 5, 18, 19, 20.
With RRIRNRPPRLPRPRPRPCQHPRP, the “shrunken log2 fold change” value was -0.0585. Regarding RRIRKRPPRLPRPRPRPHCIPRP, the “shrunken log2 fold change” value is -0.165. The value for RRIRKRPPRLPRPRPRPCGMPRP was 0.858; that for RRIRCRPPRLPRPRPRPPPSPRP was 1.61; that for RRIRKRPPRLPRPRPRPHMWPRP was -0.174. Under RRIRQRPPRLPRPRPRPMFSPRP stands 0.0442; under RRIRCRPPRLPRPRPRPFPIPRP, -0.305. Under RRIRERPPRLPRPRPRPWSEPRP stands -0.398; under RRIRERPPRLPRPRPRPCEFPRP, -0.283; under RRIRGRPPRLPRPRPRPVCWPRP, 1.16.

For the sequence RRIRKRPPRLPRPRPRPERMPRP, the “shrunken log2 fold change” value was 0.0818. As for RRIRNRPPRLPRPRPRPEDVPRP, the “shrunken log2 fold change” value was -0.0153. The value for RRIRTRPPRLPRPRPRPNYMPRP was 0.0222.

Take RRIRTRPPRLPRPRPRPYFAPRP: the “shrunken log2 fold change” value was -0.193.

Regarding RRIRYRPPRLPRPRPRPRDVPRP, the “shrunken log2 fold change” value is -0.0023. RRIRQRPPRLPRPRPRPCYSPRP: the “shrunken log2 fold change” value was -0.0444. The value for RRIRMRPPRLPRPRPRPVHGPRP was 0.32; that for RRIRDRPPRLPRPRPRPWCDPRP was 0.211; that for RRIRKRPPRLPRPRPRPFAEPRP was 0.266. Under RRIRCRPPRLPRPRPRPQHGPRP stands -0.211; under RRIRPRPPRLPRPRPRPLWCPRP, -0.158; under RRIRARPPRLPRPRPRPLDRPRP, -0.233. The value for RRIRMRPPRLPRPRPRPQSAPRP was 0.055; that for RRIRHRPPRLPRPRPRPPQFPRP was 0.0105; that for RRIRDRPPRLPRPRPRPKLKPRP was -0.0223.

RRIRWRPPRLPRPRPRPNQVPRP: the “shrunken log2 fold change” value came to 0.0796. Under RRIRDRPPRLPRPRPRPYKNPRP stands -0.454; under RRIRPRPPRLPRPRPRPKWEPRP, -0.0741. The value for RRIRGRPPRLPRPRPRPTILPRP was 0.131. For the sequence RRIRERPPRLPRPRPRPRIEPRP, the “shrunken log2 fold change” value was -0.0877. The value for RRIRMRPPRLPRPRPRPYFTPRP was -0.362. As for RRIRHRPPRLPRPRPRPYGWPRP, the “shrunken log2 fold change” value was -0.145.

RRIRSRPPRLPRPRPRPSWRPRP: the “shrunken log2 fold change” value came to 0.0852.

Take RRIRARPPRLPRPRPRPRIGPRP: the “shrunken log2 fold change” value is 0.267. Consider RRIRFRPPRLPRPRPRPNQGPRP, for which the “shrunken log2 fold change” value was -0.197. On to RRIRNRPPRLPRPRPRPFHPPRP, for which the “shrunken log2 fold change” value was determined as 0.0752. The value for RRIRIRPPRLPRPRPRPFGPPRP was -0.189; that for RRIRRRPPRLPRPRPRPPGSPRP was 0.413; that for RRIRERPPRLPRPRPRPCCHPRP was -0.603. The value for RRIRRRPPRLPRPRPRPPGVPRP was 0.704. Regarding RRIRLRPPRLPRPRPRPVQMPRP, the “shrunken log2 fold change” value is 3. The value for RRIRYRPPRLPRPRPRPLNAPRP was -0.859. Under RRIRRRPPRLPRPRPRPHGSPRP stands -0.0609. Under RRIRRRPPRLPRPRPRPQQHPRP stands -0.0327; under RRIRDRPPRLPRPRPRPYIEPRP, -0.0649; under RRIRMRPPRLPRPRPRPTPCPRP, 0.746. With RRIRNRPPRLPRPRPRPFAYPRP, the “shrunken log2 fold change” value was determined as 0.0803.

With RRIRTRPPRLPRPRPRPGPAPRP, the “shrunken log2 fold change” value was 0.35. The value for RRIRPRPPRLPRPRPRPMIGPRP was 0.00964; that for RRIRFRPPRLPRPRPRPMHVPRP was -0.0102. The value for RRIRKRPPRLPRPRPRPMPTPRP was 0.0822; that for RRIRPRPPRLPRPRPRPDEPPRP was 0.0641. Under RRIRFRPPRLPRPRPRPVEIPRP stands -0.391. In the case of RRIRHRPPRLPRPRPRPDTWPRP, the “shrunken log2 fold change” value is -1.13. The value for RRIRERPPRLPRPRPRPEYCPRP was 0.0191; that for RRIRRRPPRLPRPRPRPYWAPRP was -0.199. The value for RRIRNRPPRLPRPRPRPPHKPRP was -0.136; that for RRIRWRPPRLPRPRPRPMLHPRP was -0.17; that for RRIRCRPPRLPRPRPRPTLNPRP was -0.232.

As to RRIRERPPRLPRPRPRPSATPRP, the “shrunken log2 fold change” value came out at 0.0731. The value for RRIRERPPRLPRPRPRPDSLPRP was -0.391; that for RRIRQRPPRLPRPRPRPIAYPRP was -0.133; that for RRIRGRPPRLPRPRPRPTNHPRP was 0.169. The value for RRIRIRPPRLPRPRPRPWNHPRP was 0.0112. Under RRIRDRPPRLPRPRPRPEHDPRP stands -0.0084; under RRIRCRPPRLPRPRPRPLPWPRP, 0.195. As to RRIRNRPPRLPRPRPRPPNLPRP, the “shrunken log2 fold change” value is -0.166.

RRIRCRPPRLPRPRPRPPFRPRP: the “shrunken log2 fold change” value turned out to be 0.377. For the sequence RRIRIRPPRLPRPRPRPQITPRP, the “shrunken log2 fold change” value was -1.22.

In the case of RRIRRRPPRLPRPRPRPAMEPRP, the “shrunken log2 fold change” value was 0.019.

Take RRIRMRPPRLPRPRPRPSRGPRP: the “shrunken log2 fold change” value was 0.732.

Turning to RRIRTRPPRLPRPRPRPCQWPRP, the “shrunken log2 fold change” value is -0.107.

For RRIRVRPPRLPRPRPRPHAKPRP, the “shrunken log2 fold change” value was 0.0066. Under RRIRTRPPRLPRPRPRPEKVPRP stands -0.292; under RRIRTRPPRLPRPRPRPDDRPRP, 0.0143. Under RRIRVRPPRLPRPRPRPKNHPRP stands -0.18; under RRIRTRPPRLPRPRPRPLDCPRP, -0.294. The value for RRIRWRPPRLPRPRPRPHHWPRP was 0.13; that for RRIRERPPRLPRPRPRPPWKPRP was 0.0356; that for RRIRRRPPRLPRPRPRPYDDPRP was -0.577. With RRIRTRPPRLPRPRPRPLKVPRP, the “shrunken log2 fold change” value is -0.221. Under RRIRNRPPRLPRPRPRPCEQPRP stands -0.00776; under RRIRYRPPRLPRPRPRPLLMPRP, -0.547; under RRIRMRPPRLPRPRPRPWTDPRP, -0.035. Take RRIRRRPPRLPRPRPRPAEAPRP: the “shrunken log2 fold change” value was determined as 0.148. Consider RRIRHRPPRLPRPRPRPHICPRP, for which the “shrunken log2 fold change” value is -0.259. The value for RRIRFRPPRLPRPRPRPWNTPRP was -1.19; that for RRIRDRPPRLPRPRPRPDNYPRP was -0.117. The value for RRIRYRPPRLPRPRPRPIDTPRP was -0.0431.

For RRIRFRPPRLPRPRPRPYQNPRP, the “shrunken log2 fold change” value was -0.0547. Under RRIRNRPPRLPRPRPRPTLYPRP stands -0.3; under RRIRFRPPRLPRPRPRPWDHPRP, -0.483. Consider RRIRARPPRLPRPRPRPMRAPRP, for which the “shrunken log2 fold change” value turned out to be 1.25. Under RRIRARPPRLPRPRPRPRVVPRP stands 0.624; under RRIRERPPRLPRPRPRPAFEPRP, -0.0208. Under RRIRLRPPRLPRPRPRPKMDPRP stands -0.428. Regarding RRIRIRPPRLPRPRPRPPKGPRP, the “shrunken log2 fold change” value is 0.0681. Under RRIRIRPPRLPRPRPRPLYNPRP stands -0.522; under RRIRKRPPRLPRPRPRPLLVPRP, 0.372. The value for RRIRIRPPRLPRPRPRPFPSPRP was -0.953; that for RRIRVRPPRLPRPRPRPYITPRP was -0.77. As for RRIRIRPPRLPRPRPRPWWWPRP, the “shrunken log2 fold change” value was -0.115.

RRIRARPPRLPRPRPRPMYDPRP: the “shrunken log2 fold change” value stood at 0.15. As for RRIRERPPRLPRPRPRPTDDPRP, the “shrunken log2 fold change” value is -0.00106. As to RRIRNRPPRLPRPRPRPPSWPRP, the “shrunken log2 fold change” value is 0.161. Consider RRIRARPPRLPRPRPRPIESPRP, for which the “shrunken log2 fold change” value was determined as 0.0614.

In the case of RRIRLRPPRLPRPRPRPQIQPRP, the “shrunken log2 fold change” value was -0.0697. Under RRIRLRPPRLPRPRPRPGLCPRP stands 0.234; under RRIRRRPPRLPRPRPRPQFRPRP, -0.165; under RRIRGRPPRLPRPRPRPFWTPRP, 0.0497.

As for RRIRVRPPRLPRPRPRPCWCPRP, the “shrunken log2 fold change” value is 0.0389.

For RRIRKRPPRLPRPRPRPEVVPRP, the “shrunken log2 fold change” value was 0.016.

Consider RRIRIRPPRLPRPRPRPALYPRP, for which the “shrunken log2 fold change” value was -0.312. Under RRIRYRPPRLPRPRPRPCNTPRP stands -0.425. The value for RRIRQRPPRLPRPRPRPYMVPRP was -0.176. Under RRIRYRPPRLPRPRPRPNHTPRP stands -0.259.

With RRIRTRPPRLPRPRPRPMERPRP, the “shrunken log2 fold change” value is 0.0039. Under RRIRKRPPRLPRPRPRPDWRPRP stands 0.499. The value for RRIRVRPPRLPRPRPRPQLEPRP was 0.144; that for RRIRGRPPRLPRPRPRPKYNPRP was 0.02; that for RRIRLRPPRLPRPRPRPMSQPRP was -0.219. Under RRIRTRPPRLPRPRPRPKFEPRP stands 0.0721. Take RRIRVRPPRLPRPRPRPMTHPRP: the “shrunken log2 fold change” value was -0.352. As for RRIRTRPPRLPRPRPRPCGIPRP, the “shrunken log2 fold change” value came to 0.0859. Under RRIRERPPRLPRPRPRPGVAPRP stands 0.146.
